Changes are numbered by the printed parent chain. A value given as a limit tells only on which side of the number the result lay.

The chains are these.
B1: toripalimab Fab H.K65A (Fab, V domains shown)
VH: QGQLVQSGAEVKKPGASVKVSCKASGYTFTDYEMHWVRQAPIHGLEWIGVIESETGGTAYNQKFAGRVTITADKSTSTAYMELSSLRSEDTAVYYCAREGITTVATTYYWYFDVWGQGTTVTVSS
VL: DVVMTQSPLSLPVTLGQPASISCRSSQSIVHSNGNTYLEWYLQKPGQSPQLLIYKVSNRFSGVPDRFSGSGSGTDFTLKISRVEAEDVGVYYCFQGSHVPLTFGQGTKLEIK
notes: heavy chain of Sm3 with this change; numbers count from the chain's first residue; as the light chain of Sm3; source: Brevibacillus, culture supernatant (ammonium sulfate precipitate); not shown: 6xHis, C-terminal, kept; 6xHN, C-terminal, kept
B2: toripalimab Fab H.V114A (Fab, V domains shown)
VH: B1 VH with A65K, V114A
VL: B1 VL
notes: as for B1
B3: toripalimab Fab H.E33A (Fab, V domains shown)
VH: B1 VH with E33A, A65K
VL: B1 VL
notes: as for B1
B4: toripalimab Fab H.M34A (Fab, V domains shown)
VH: B1 VH with M34A, A65K
VL: B1 VL
notes: as for B1
B5: toripalimab Fab H.T107Y (Fab, V domains shown)
VH: B1 VH with A65K, T107Y
VL: B1 VL
notes: as for B1
B6: toripalimab Fab H.T106A (Fab, V domains shown)
VH: B1 VH with A65K, T106A
VL: B1 VL
notes: as for B1
B7: toripalimab Fab H.G66A (Fab, V domains shown)
VH: B1 VH with A65K, G66A
VL: B1 VL
notes: as for B1
B8: toripalimab Fab H.G100A (Fab, V domains shown)
VH: B1 VH with A65K, G100A
VL: B1 VL
notes: as for B1
B9: toripalimab Fab L.R24Y (Fab, V domains shown)
VH: B1 VH with A65K
VL: B1 VL with R24Y
notes: as the heavy chain of Sm3; light chain of Sm3 with this change; numbers count from the chain's first residue; source: Brevibacillus, culture supernatant (ammonium sulfate precipitate); not shown: 6xHis, C-terminal, kept; 6xHN, C-terminal, kept
B10: toripalimab Fab H.V114Y (Fab, V domains shown)
VH: B1 VH with A65K, V114Y
VL: B1 VL
notes: as for B1
B11: toripalimab Fab H.A105Y (Fab, V domains shown)
VH: B1 VH with A65K, A105Y
VL: B1 VL
notes: as for B1
B12: toripalimab Fab H.T107A (Fab, V domains shown)
VH: B1 VH with A65K, T107A
VL: B1 VL
notes: as for B1
B13: toripalimab Fab H.T106Y (Fab, V domains shown)
VH: B1 VH with A65K, T106Y
VL: B1 VL
notes: as for B1
B14: toripalimab Fab H.K65Y (Fab, V domains shown)
VH: B1 VH with A65Y
VL: B1 VL
notes: as for B1
B15: toripalimab Fab L.R24A (Fab, V domains shown)
VH: B1 VH with A65K
VL: B1 VL with R24A
notes: as for B9
B16: toripalimab Fab H.G66Y (Fab, V domains shown)
VH: B1 VH with A65K, G66Y
VL: B1 VL
notes: as for B1
B17: toripalimab Fab H.V104Y (Fab, V domains shown)
VH: B1 VH with A65K, V104Y
VL: B1 VL
notes: as for B1
B18: toripalimab Fab H.Y109A (Fab, V domains shown)
VH: B1 VH with A65K, Y109A
VL: B1 VL
notes: as for B1
B19: toripalimab Fab H.V104A (Fab, V domains shown)
VH: B1 VH with A65K, V104A
VL: B1 VL
notes: as for B1
B20: toripalimab Fab H.W110Y (Fab, V domains shown)
VH: B1 VH with A65K, W110Y
VL: B1 VL
notes: as for B1
B21: toripalimab Fab H.F112Y (Fab, V domains shown)
VH: B1 VH with A65K, F112Y
VL: B1 VL
notes: as for B1

The target in one assay is T1, human programmed cell death protein 1 (hPD-1) C93S (aa 24-167) (Homo sapiens, UniProt Q15116, C93S).
T1 construct: made as a fusion with a TEV site and human Fc; the Fc was cut off with TEV protease; source: Expi293F, purified (Protein A, TEV cleavage of Fc, SEC; monomer fractions); not shown: Fc (human), C-terminal, cleaved
T1 sequence (Q15116 24-167 C93S): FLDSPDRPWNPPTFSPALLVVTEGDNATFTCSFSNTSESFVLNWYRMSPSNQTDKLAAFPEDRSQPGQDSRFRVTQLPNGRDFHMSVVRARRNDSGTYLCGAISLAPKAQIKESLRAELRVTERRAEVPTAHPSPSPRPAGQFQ
Kind of assay: SPR; Carterra LSA; Fab from the ammonium sulfate precipitate of the culture supernatant immobilised on a NiHC200M chip; hPD-1 (1-1024 nM) or mPD-1-Fc (4-1024 nM) as analyte, fourfold dilution series, no regeneration; HBS-EP pH 7.4, 25 °C; medians over the spots of a construct, KD = koff/kon. The note with it: one partner purified. In outline: (§1)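 Human PD-1 (1–1024 nM) or mouse PD-1-Fc (4–1024 nM), in fourfold series, was flowed without regeneration over Fabs captured in duplicate on a NiHC200M chip (Carterra LSA, 25 °C), using 10 min association and 5 min dissociation. The Fabs had been recovered from Brevibacillus culture supernatants by ammonium sulfate precipitation and redissolved in HBS-EP. For binding constants, KD was defined as koff/kon from per-construct medians, with rates fitted by the kdka model under slow- or fast-dissociation settings (best fit) and unconfirmed binders set to kon 10^3 […] and koff 10^−2 s^−1.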
(SPR reads the build-up and loss of mass on a sensor chip optically.)
In the case of B1, the Kd is under 1.5 nM, the off-rate (koff) is under 1e-05 s⁻¹ and the kon is 6670 M⁻¹ s⁻¹.

Consider B2, for which the dissociation constant Kd is under 1.5 nM, the off-rate (koff) is under 1e-05 s⁻¹ and the association rate constant (kon) came out at 6670 M⁻¹ s⁻¹.

Take B3: binding was put at a Kd of 1.37 nM, the dissociation rate constant (koff) was 1.31e-05 s⁻¹ and the kon was determined as 9540 M⁻¹ s⁻¹.

Regarding B4, the equilibrium dissociation constant (Kd) was 0.968 nM, the off-rate (koff) was found to be 3.28e-05 s⁻¹ and the kon turned out to be 33900 M⁻¹ s⁻¹.

Molecule B5 showed a Kd of under 0.315 nM, a koff of under 1e-05 s⁻¹ and a kon of 31700 M⁻¹ s⁻¹.

B6 showed a Kd of 0.743 nM, a dissociation rate constant (koff) of 1.56e-05 s⁻¹ and an association rate constant (kon) of 21000 M⁻¹ s⁻¹.

B7 registered a Kd of under 1.56 nM, a koff of under 1e-05 s⁻¹ and an on-rate constant (kon) of 6410 M⁻¹ s⁻¹.

For the molecule B8, the equilibrium dissociation constant (Kd) was found to be 0.593 nM, the off-rate (koff) is 1.42e-05 s⁻¹ and the on-rate (kon) is 23900 M⁻¹ s⁻¹.

B9 registered a Kd of under 1.44 nM, a koff of under 1e-05 s⁻¹ and a kon of 6930 M⁻¹ s⁻¹.

For B10, the Kd was found to be 1.23 nM, the koff was 2.39e-05 s⁻¹ and the kon was 19400 M⁻¹ s⁻¹.

In turn, B11 had a Kd of under 0.492 nM, a koff of under 1e-05 s⁻¹ and an on-rate constant (kon) of 20300 M⁻¹ s⁻¹.

On to B12, for which the equilibrium dissociation constant (Kd) is under 1.53 nM, the koff is under 1e-05 s⁻¹ and the kon amounted to 6520 M⁻¹ s⁻¹.

B13 had a Kd of 0.833 nM, a koff of 1.75e-05 s⁻¹ and a kon of 21000 M⁻¹ s⁻¹.

In the case of B14, the Kd was 1.14 nM, the dissociation rate constant (koff) was found to be 1.86e-05 s⁻¹ and the kon was determined as 16300 M⁻¹ s⁻¹.

Molecule B15 registered an equilibrium dissociation constant (Kd) of under 0.696 nM, an off-rate constant (koff) of under 1e-05 s⁻¹ and a kon of 14400 M⁻¹ s⁻¹.

Regarding B16, the dissociation constant Kd was under 0.85 nM, the off-rate constant (koff) is under 1e-05 s⁻¹ and the kon came out at 11800 M⁻¹ s⁻¹.

B17 returned a Kd of 1.17 nM, a koff of 1.81e-05 s⁻¹ and a kon of 15500 M⁻¹ s⁻¹.

Molecule B18 showed a Kd of 0.608 nM, a koff of 1.41e-05 s⁻¹ and a kon of 23200 M⁻¹ s⁻¹.

Consider B19, for which the dissociation constant (Kd) turned out to be 4.51 nM, the koff was determined as 8.98e-05 s⁻¹ and the kon is 19900 M⁻¹ s⁻¹.

In turn, B20 came in with a dissociation constant (Kd) of under 1.51 nM, a koff of under 1e-05 s⁻¹ and an on-rate (kon) of 6610 M⁻¹ s⁻¹.

In turn, B21 had a Kd of under 0.731 nM, a koff of under 1e-05 s⁻¹ and a kon of 13700 M⁻¹ s⁻¹.

A further assay concerns the target T2, mouse programmed cell death protein 1 Fc fusion protein (mPD-1-Fc), mPD-1 C60S (aa 25-167) (Mus musculus, UniProt Q02242, stabilised).
T2 construct: not cleaved; source: Expi293F, purified (Protein A, SEC; dimeric fraction); not shown: Fc (human), C-terminal, kept
The description is as above. The note with it: one partner purified. In outline:
as §1
The molecule B1 gave a dissociation constant (Kd) of 257 nM, a dissociation rate constant (koff) of 0.00911 s⁻¹ and a kon of 35400 M⁻¹ s⁻¹.

Regarding B2, the affinity, expressed as Kd, was 201 nM; the koff is 0.00764 s⁻¹; the kon amounted to 38100 M⁻¹ s⁻¹.

B3 registered a Kd of 103 nM, a koff of 0.00372 s⁻¹ and a kon of 36200 M⁻¹ s⁻¹.

Consider B4, for which the dissociation constant Kd turned out to be 153 nM, the koff turned out to be 0.0068 s⁻¹ and the kon was found to be 44300 M⁻¹ s⁻¹.

On to B5, for which the equilibrium dissociation constant (Kd) was 137 nM, the off-rate (koff) is 0.00432 s⁻¹ and the on-rate (kon) worked out at 31600 M⁻¹ s⁻¹.

Molecule B6 registered a dissociation constant Kd of 107 nM, a dissociation rate constant (koff) of 0.00423 s⁻¹ and an association rate constant (kon) of 39700 M⁻¹ s⁻¹.

In turn, B7 yielded a dissociation constant Kd of 223 nM, a koff of 0.00674 s⁻¹ and a kon of 30200 M⁻¹ s⁻¹.

Take B8: binding was put at a Kd of 464 nM, the koff was found to be 0.0353 s⁻¹ and the association rate constant (kon) was determined as 76100 M⁻¹ s⁻¹.

With B9, the Kd was found to be 133 nM, the off-rate (koff) came to 0.0047 s⁻¹ and the kon was determined as 35400 M⁻¹ s⁻¹.

In turn, B10 yielded a Kd of 235 nM, a koff of 0.00887 s⁻¹ and a kon of 37800 M⁻¹ s⁻¹.

Consider B11, for which the dissociation constant Kd came out at 95.5 nM, the koff came to 0.00349 s⁻¹ and the kon is 36500 M⁻¹ s⁻¹.

As for B12, the affinity, expressed as Kd, was 232 nM; the koff amounted to 0.00703 s⁻¹; the on-rate constant (kon) worked out at 30300 M⁻¹ s⁻¹.

In the case of B13, the dissociation constant Kd is 140 nM, the koff amounted to 0.00601 s⁻¹ and the kon stood at 43000 M⁻¹ s⁻¹.

B14 returned a dissociation constant (Kd) of 299 nM, a dissociation rate constant (koff) of 0.012 s⁻¹ and a kon of 40300 M⁻¹ s⁻¹.

Turning to B15, the Kd is 198 nM, the off-rate (koff) worked out at 0.0079 s⁻¹ and the kon is 39900 M⁻¹ s⁻¹.

Take B16: binding was characterised by a dissociation constant (Kd) of 393 nM, the koff was 0.0111 s⁻¹ and the kon turned out to be 28100 M⁻¹ s⁻¹.

Consider B17, for which binding was put at a Kd of 96.2 nM, the off-rate constant (koff) is 0.00366 s⁻¹ and the kon came out at 38000 M⁻¹ s⁻¹.

For the molecule B18, the affinity, expressed as Kd, was 49.7 nM; the dissociation rate constant (koff) turned out to be 0.00179 s⁻¹; the kon is 36000 M⁻¹ s⁻¹.

On to B19, for which binding was put at a Kd of 81.5 nM, the off-rate (koff) turned out to be 0.00354 s⁻¹ and the kon stood at 43400 M⁻¹ s⁻¹.

Molecule B20 registered a Kd of 166 nM, an off-rate constant (koff) of 0.00571 s⁻¹ and a kon of 34500 M⁻¹ s⁻¹.

Turning to B21, the Kd worked out at 59.7 nM, the dissociation rate constant (koff) was found to be 0.00308 s⁻¹ and the kon was 51700 M⁻¹ s⁻¹.

The term Kd denotes the equilibrium constant for the complex coming apart. Low values mean a tighter complex, high ones a looser complex. Broadly, the koff is a measure of how fast the partners let go of each other. The low end stands for a long-lived complex, the high end for a short-lived complex. As usually defined, the kon is the rate constant with which the complex forms. Low values mean slow association, high ones fast association.

For the origin of these results see paper PMC10663500, “High-throughput analysis system of interaction kinetics for data-driven antibody design” (Scientific Reports, 2023).
